# Test results reported in US20240343820A1 (KITE PHARMA, published 2024).
# Numbering of substitutions follows the chain as printed.
# T1: SLC20A1 (PIT1) receptor (UniProt Q8WUM9 1-679, limits assumed)
# T1 construct: whole, on cells; Endogenous on K562 cells (a human cell line)
# T1 sequence (looked up): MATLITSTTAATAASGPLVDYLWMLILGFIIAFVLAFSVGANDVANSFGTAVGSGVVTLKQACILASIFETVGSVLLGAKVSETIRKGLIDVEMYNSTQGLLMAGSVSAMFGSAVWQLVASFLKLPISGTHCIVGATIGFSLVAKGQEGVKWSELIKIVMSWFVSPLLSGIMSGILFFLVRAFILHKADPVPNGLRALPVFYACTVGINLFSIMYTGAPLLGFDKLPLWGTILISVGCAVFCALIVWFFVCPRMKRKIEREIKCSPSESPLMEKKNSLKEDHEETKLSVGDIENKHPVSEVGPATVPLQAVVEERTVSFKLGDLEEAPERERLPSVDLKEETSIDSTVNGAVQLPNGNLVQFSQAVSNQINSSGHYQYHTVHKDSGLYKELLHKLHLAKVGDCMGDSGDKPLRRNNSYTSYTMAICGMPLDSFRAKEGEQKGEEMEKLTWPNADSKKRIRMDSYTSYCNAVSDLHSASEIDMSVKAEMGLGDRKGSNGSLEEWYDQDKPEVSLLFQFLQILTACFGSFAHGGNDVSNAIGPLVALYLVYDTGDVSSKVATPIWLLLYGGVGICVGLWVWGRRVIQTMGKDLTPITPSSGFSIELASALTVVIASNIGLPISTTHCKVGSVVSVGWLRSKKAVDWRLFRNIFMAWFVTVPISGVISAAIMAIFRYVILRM
# B1: 8G8 (antibody, V domains shown)
# VH: QVQLQQPGAELVRPGSSVKLSCKASGYTFTNYWMDWVKQRPGQGLEWIGNIYPSDSETHYNQNFKDKATLTVDKSSSTAYMQLSSLTSEDSAVYYCARDYYWGQGTTLTVSS
# VL: QAVVTQESALTTSPGETVTLTCRSSTGAVTRSNYANWVQEKPDHLFTGLIGGTNNRALGVPARFSGSLIGDKAALTITGAQTEDEAIYFCALWYSNHLVFGGGTKLTVLQ
# notes: Anti-GALV gp70; One id for the hybridoma supernatant and the recombinant murine IgG2a antibody; also called 8G8-HC2 / 8G8-LC2
# B2: 2D3 (antibody, V domains shown)
# VH: B1 VH with N63K, K65R, S75P
# VL: B1 VL with R31T, T82I
# notes: Anti-GALV gp70; One id for the hybridoma supernatant and the recombinant murine IgG2a antibody; also called 2D3-HC1 / 2D3-LC1
# B3: 4F1 (antibody, V domains shown)
# VH: B1 VH with N31S, V37M, N50H, N63K, K67R, T78A, Y80F
# VL: B1 VL with R31T, L58P
# notes: Anti-GALV gp70; One id for the hybridoma supernatant and the recombinant murine IgG2a antibody; also called 4F1-HC / 4F1-LC1
# B4: 9A1 (antibody, V domains shown)
# VH: B1 VH with K19R, N31S, N63K
# VL: B1 VL with L58P
# notes: Anti-GALV gp70; One id for the hybridoma supernatant and the recombinant murine IgG2a antibody; also called 9A1-HC3 / 9A1-LC1
# B5: 9G11 (antibody, V domains shown)
# VH: B1 VH with N50H, N61I, N63K, S77N
# VL: B1 VL with R31T, L58P, N96S, H97Q
# notes: Anti-GALV gp70; One id for the hybridoma supernatant and the recombinant murine IgG2a antibody; also called 9G11-HC / 9G11-LC
# B6: 40A3 (antibody, V domains shown)
# VH: DVQLQESGPDLVKPSQSLSLTCTVTDFSITSDYTWHWVRQFPGNKLEWMAYIHYSGGTNYNPSLRSRISITRDTSKNQFFLHMNSVTTEDTATYYCLYYGSRDAVDYWGQGTSVTVSS
# VL: QIVLTQSPAIMSASPGEKVTMTCSTSSSVTYMHWYQQKSGTSPKRWIYDTSKLASGVPARFSGSGSGTSYSLTISSMEAEDAATYYCQQWSSSPYTFGGGTKLEIK
# notes: Anti-GALV gp70; One id for the hybridoma supernatant and the recombinant murine IgG2a antibody; also called 40A3-HC / 36H3-LC
# B7: 35C11 (antibody, V domains shown)
# VH: QVQLQQSGPELVRPGVSVKISCKVSGYTFTDYTMHWVKQSHAKSLEWIGLISTYSGKTNYNQKLKDKATMTVDKSSSTAYMELARLTSEDSAIFYCARGGLRDAMDYWGQGTSVTVSS
# VL: DIVLTQSPASLAVSLGQGATISCRASESVDSYGNSFMHWYQQKPGQPPKLLIYRASNLESGIPARFSGSGSGTDFTLTINPVEADDVATYYCLQSNEDPRTFGGGTKLEIK
# notes: also called 35C11-HC / 35C11-LC
# B8: 40A6 (antibody, V domains shown)
# VH: EVQLVESGGGLVKPGGSLKLSCAASGFTFSSYVLSWVRQIPEKRLEWVATINSGGSYTYYPDSVKGRFTISRDNAKNTLYLQMSSLRSEDTAIYYCARHLIYYDYDGYYFDTWGQGTSLTVSS
# VL: DVVMTQTPLSLPVSLGDQASISCRSSQTLVHSNGNIYLHWYLQKPGQSPKLLIYKVSNRFSGVPDRFSGSGSGTDFTLKISRVETEDLGIYFCSQTTHVPPTFGGGTKLEIK
# notes: Anti-GALV gp70; One id for the hybridoma supernatant and the recombinant murine IgG2a antibody; also called 40A6-HC / 40A6-LC
# B9: huIgG1 monoFc tagged GALV gp70 protein (residues 505-616) (Fc fusion)
# chain: not shown
# notes: Residues are numbered according to Uniprot P21415; also called gp70 (505-616); coiled-coil (CC) domain of GALV gp70
# B10: huIgG1 monoFc tagged GALV gp70 protein (residues 42-474) (Fc fusion)
# chain: TSLQNKNPHQPMTLTWQVLSQTGDVVWDTKAVQPPWTWWPTLKPDVCALAASLESWDIPGTDVSSSKRVRPPDSDYTAAYKQITWGAIGCSYPRARTRMASSTFYVCPRDGRTLSEARRCGGLESLYCKEWDCETTGTGYWLSKSSKDLITVKWDQNSEWTQKFQQCHQTGWCNPLKIDFTDKGKLSKDWITGKTWGLRFYVSGHPGVQFTIRLKITNMPAVAVGPDLVLVEQGPPRTSLALPPPLPPREAPPPSLPDSNSTALATSAQTPTVRKTIVTLNTPPPTTGDRLFDLVQGAFLTLNATNPGATESCWLCLAMGPPYYEAIASSGEVAYSTDLDRCRWGTQGKLTLTEVSGHGLCIGKVPFTHQHLCNQTLSINSSGDHQYLLPSNHSWWACSTGLTPCLSTSVFNQTRDFCIQVQLIPRIYYYPEE
# notes: also called gp70 (42-474)
# B11: huIgG1 monoFc tagged GALV gp70 protein (residues 42-616) (Fc fusion)
# chain: TSLQNKNPHQPMTLTWQVLSQTGDVVWDTKAVQPPWTWWPTLKPDVCALAASLESWDIPGTDVSSSKRVRPPDSDYTAAYKQITWGAIGCSYPRARTRMASSTFYVCPRDGRTLSEARRCGGLESLYCKEWDCETTGTGYWLSKSSKDLITVKWDQNSEWTQKFQQCHQTGWCNPLKIDFTDKGKLSKDWITGKTWGLRFYVSGHPGVQFTIRLKITNMPAVAVGPDLVLVEQGPPRTSLALPPPLPPREAPPPSLPDSNSTALATSAQTPTVRKTIVTLNTPPPTTGDRLFDLVQGAFLTLNATNPGATESCWLCLAMGPPYYEAIASSGEVAYSTDLDRCRWGTQGKLTLTEVSGHGLCIGKVPFTHQHLCNQTLSINSSGDHQYLLPSNHSWWACSTGLTPCLSTSVFNQTRDFCIQVQLIPRIYYYPEEVLLQAYDNSHPRTKREAVSLTLAVLLGLGITAGIGTGSTALIKGPIDLQQGLTSLQIAIDADLRALQDSVSKLEDSLTSLSEVVLQNRRGLDLLFLKEGGLCAALKEECCFYIDHSGAVRDSMKKLKEKLDKRQLERQKSQN
# notes: Residues are numbered according to Uniprot P21415; also called gp70 (42-616); RBD+CC domains
# Biological target: B10
# Test: BLI Octet Red96; antibody on AMC biosensor, 100 nM monoFc-gp70(42-474) analyte
Binder,Kd [nM],koff [s⁻¹],kon [M⁻¹ s⁻¹]
B1,0.193,6.31e-05,328000
B2,1.71,0.00048,281000
B3,1.69,0.000607,359000
B4,1.4,0.000447,318000
B5,0.704,0.000257,366000
B6,0.00524,6e-07,114000
B7,0.0122,6.29e-07,51500
B8,0.0175,6.72e-07,38300

# Biological target: B9
# Test: indirect ELISA, hybridoma supernatant on coated monoFc-tagged gp70 (505-616)
row,Binder,binding result
1,B3,no binding
2,B5,no binding
3,B6,no binding

# Biological target: T1, SLC20A1 (PIT1) receptor
# Test: flow cytometry, monoFc-tagged gp70 (505-616) on K562 cells (endogenous SLC20A1), PE anti-human Fc secondary
row,Binder,binding result
1,B9,no binding (tested: 10.00 ug/100ul)

# Biological target: T1, SLC20A1 (PIT1) receptor
# Test: flow cytometry, monoFc-tagged gp70 protein on K562 cells (endogenous SLC20A1), PE anti-human Fc secondary; CHO as negative cells
row,Binder,binding result
1,B10,binds
2,B11,binds
